Experiment: yeast display, Sf9 membrane polyspecificity reagent, FACS + sequencing; frameworks hold sequencing errors
Summary of the method: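 After 36–48 hours of galactose induction, yeast (Saccharomyces cerevisiae BJ5465) displaying a synthetic nanobody library were stained at 4 °C for 1 hour with 10% biotinylated, detergent-solubilized Sf9 membrane reagent. Streptavidin microbeads enriched the stained cells before FACS sorting into low and high (top ~1%) gates on anti-HA and streptavidin fluorescence. Each clone's polyreactivity label reflects its gate of origin.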

Row | Sequence | polyreactivity (PSR sort gate)
1 | QVQHVESGGGLVQAGGRLRLSCAASGSIFAWYARGWYIQAPGKEREVVADITHSGGSTYYADSLKGRFTISRDNAKNTVYLQMYSLKPEDTAVSYCVDYWYNDLQSGWEDDYWGQGTQVTVAS | low polyreactivity
2 | QVQLVESGGGLVQAGGSLRLSCAASGSIFWRNAMGWYRQAPGKERELVAAISRVGSTNYADSVKGRFTISRDNAKNTVYLQMNSLKPQDTAVYYCAVDGGEFSSYGYWGQGTQVTVSS | low polyreactivity
3 | QVQLVESGGGLVQAVGSLRLSCAASGSIFPDNAMGWYRQAPRKERELVASISWSGGSTYYADSVKGRFTISRDNAKNPVYLQRNSLKPEDTAVYYCARTYYWYLRVDYWGQGTQVTVSS | low polyreactivity
4 | QVQLVESGGGLVQAGGSLRLSCAASGGIIQNYVMGWYRQAPGKEREFVATISQRGGITYYADSVKGRFTISRDNAKNTVYLQMNSLKPEDTAVYYCAARSYYAVYYWGQGTQVTVSS | high polyreactivity
5 | QVQLQESGGGLVQAGGSLRLSCAASGNIFEADIMGWNHQAQGKERELVASITDGGSTNYADSVKGRFTINRDNAKNNVYLQMNSLKPEDTAVYYCAAFAYPDIPTYFDYDIFTYWGQGTQVTVSS | high polyreactivity
6 | QVQHVHSGGGLVQAGGSLRLTCAASGSTFVGNAMVRYRQATGKERELVATISNSGGRTYYADSVKGRFTISRDNPKNTVYLQMNSLKAEDTAVYFCAADHPAFVPVYSFDYWGQGTQVNVSS | low polyreactivity
7 | QVQLVESGGGLVQAGGSLRLSCAASGRTFFPNAMGWYRQAPGKERELVAAISSGGSTYYADSVKGRFTISRDNAKNTVYLQMNSLKPEDTAVYYCAVYGFYSKYGYWGQGTQVTVSS | high polyreactivity
8 | QVPLVESGGGLVQAGGSLRLSCAASGGIFYSYAMGWYRQAPGKERELVPAIRTNGGTTYYADSVKGRFTISRDNAKNTVYLQLNSLKQEDTAVYYCDALPGSYYDRGEYDYWGQGTQVTVSS | low polyreactivity
9 | QDQLVESGGGLVQAGGSLRLSCAASGSIFPDYTMGWYRQAPGKERELVPGNTWNGGGTYYADSVKGRITISRDNAKNTVYLQMYSLKPEDTAVYYCAAVWSGSRSTGAWGPYNYWGQGTQVTVSS | low polyreactivity
10 | QVQLVESGGGLVLAGGSLRLSCAASGSIFDDNAMGWYIQAPGKERELVAANTVSTDTTYYADSVKGRFTISRDIAKNTVSLLMNSLKPEDTAVYYCAAEGPGYGPTGDFYWYTYYYWGQGTQVTVSS | low polyreactivity
11 | QVQLVESGGGLVQAGGSLRLSCAASGRTFYYNAMVWYRQAPGKERELVAAITWSGGRTFYADSVKGRFTISRDNAKNTVYLQMNSLKPEDTAVYYCNAYPVFRSYDYWGQGTQVTVSS | high polyreactivity
12 | QVQLVESGGGLVQGGGSLRLSCAASGRIGKYAMGWYRQAPGKERELVATISSTGTTNYADSVKGRFTISRDNAKNTVYLQMNSLKPEDTAVYYCAARWEYVGYRRRYYRFDYWGQGTQVTVSS | high polyreactivity
13 | QVHLVESGGGLVQAGGSLRLSCAASGRTFYVYAMGWYIQAPGKERELVATITSRGGRTYYADSVKGRFTISRDNAKNTVYLQMNSLKPEDTAVYYCNAAWWKVSYVRQKYYYWGQGTQVTVSS | high polyreactivity
14 | QVQLVESGGGVVQAGGSLRLSCAASGFIFSYNVMVWYRQAPGKERELVAAISSSGGSTYYADSVKGRFTISRDNAKNTAYLQMNSLKPEDTAVYYCATRVSRSFRAYDYWGQGTQVTVSS | high polyreactivity
15 | QVQLVDSGGGLVQAGGSLRLSCAASGRTFYWYTMGWYRQAPGKERELVAAISTRGVRTYYADSVKGRFTISRDNAKNTVYLQMNSLKPADTAVYYCNDEYNPTYYTSHDDSDYWGQGTLVTVSS | low polyreactivity
16 | QVHLVESGGGLVQAGGTLRLRCAASGSTFERYVMGWYRHPLGKKGSWLPVLNHNGCSTYYAESVKGRFTISRDNAKNTVYLQMNSLKQEVTAVYYCAAYFRTVLDYGSWGQGTQVTVSS | low polyreactivity
17 | QVQLVESGGGLVQAGGSLRLSCAASGGTFLSNAMGWYRQAPGKERELVAAISASSGSTYYADSVKGRFTISRDNAKNPVYLQMNSVKPEDTAVYYCAKERRASVVRYDYWGQGTQVTVSS | low polyreactivity
18 | QVQHVESGGGLVQAGGSLRLSCAASGIYYNAMGWYRQAPGKERELVAVITYSGGSTYYADSVKGRFTISRDNAKNTVYLQMNSLKPEETAVYYCAADDYYVALPGLYDYWGQGTQVTVSS | low polyreactivity
19 | QVQLVETGGGLVQAGGSLRLSCAASGIIFDVYAMGWYRPAPGKERELVAAISYGGGTTYYADSVKGRFTISRDNAKNTVYLQMNSLKPEDTAVYYCAADSYRSIGDDYWGQGTQVTVSS | high polyreactivity
20 | QVQLVESGGGLVQAGGSLRLSCAASGRILPYNVMGWYRQATGKEREFVAAITGSGGDTYYADSVKGRFTISRDNAKNTVYLQMHILKPVDTAVYYCAAAPYIGGSFGQTPGSGYWGQGTQVTVSS | low polyreactivity
21 | QVHLVESGGALVQAGGRLRLSCAASGSIFGRNAMGWYRQAPGKERELVAVISKRSGNTYYADSVKGRFTISRDNAKNTVYLQMNSLKPEHTAVYYCNAVDQKLLRYDYWGQGTEVTVSS | high polyreactivity
22 | QVQLVESGGGLVQAGGSLRLSCAPSGSIFVHNAMGWYRQAPGKERELVAALDGGGGTYYADSVKGRFTISRDNAKNTVYLQMNSLKPEDTAVYYCAARYFHHYWGDLEVEFDYWGQGTQVTVSS | low polyreactivity

Row | Sequence | polyreactivity (PSR sort gate)
23 | QVQLESGGGLVQAGGRLRLSCAASGSIIDQYVMGWYRQAPGKERELVAAISRGGRTYYADSVKGRFTISRDNAKNTVYLQMNSLKPVDSSVYYCAARSDVRGFDYWGQGTQVTVSS | low polyreactivity
24 | QVQLVESGGGLVQAGGSLRLSCAASGSIFPVYAMGWYRPAPGKERELVAAISLRAGNTYYADSVKGRFTISRDNAKNTVYLQMNSLKPEDTAVYDCAVELFRSTTIYDYWGQGTLVTVSS | high polyreactivity
25 | QVQLVESGGGLVQAGGSLRLSCAASGRIFYFNTMGWYRQAPGKERELVAAITGSGSSTYYADSVKGRFTISRDNAKNTVYLQMNSLKPEDTAVYYCAAYGFSRNGYTYGHDDWGQGTQVTVSS | low polyreactivity
26 | QVQLVESGGGLVQAGGSLRLSCDATGSIISYNTMGWYRQAPGKERELVAAITWGGRTYYADSVKGRFTISRDNAKNTVYLQMNSLKPEDTAVYYCAKRIRGGAPTYDYWGQRTQVTVSS | low polyreactivity
27 | QVQLVESGGGLVQAGGSLRLSCAASGSIFPYYAMGWYRQAPGKEREFVASISSVTSTYADSVKGRFTISRDNAKNTVYLQMNSLKPEDTAVYYCAADRAYSWYSVSRYNYWGQGTQVTVSS | low polyreactivity
28 | QVQLVESGGGLVQAGGSLRLSCAASGNTIIRYPMGWYRPAPGKERELVAAISYSGGRTYYADSVKGRFTISRDSAKNTVYLQMNRLKPEDSAVLYCNAASRYGGDYWGQGSQVTVSS | high polyreactivity
29 | QVQLVESGGGLVQAGGSLRLSCAASGIIFNSYSMGLYRHAPGKERELVAAITYSGTRTYYADSVKGRFTISRDNAKNTVYLQMNCLKPEDTAVYYCNAVTGRGRTITQYDSWGQGTQVTVSS | high polyreactivity
30 | QLQLVESGGGLVQAGGSLRITCAASGSTFLTYSMGWYRQAPGKESELVAGISYSTGSTYYADSVKGRFTISRDNAKYTVYLQMNSLKPEDTAVYYCAADEWDCLWYYYYFNYEYWGQGTQVTVSS | low polyreactivity
31 | QVQLVESGGGLVQAGGSLRLSCAAYGRTFLFYAMGWYIQAPGKERELVAAITRSDGSTYYADSVKGRFTISRDNAKNTVYLQMNSLKPEDTAVYYCAAEYVSILRDYDYWGQGTQVTVSS | low polyreactivity
32 | QVQLVESGGGLVQAGGSLRLSCAASGSIFTRNALGWYRQAPGKETEFVAAISSSGVSTYYADSVKGRFTISRDNAKNTVYLQMNSLKPEDTAVYDCAARWGTKSGRFEYWGQGTQVTVSW | high polyreactivity
33 | QVQLVESGGGLVQAGVSLRLSCAASGFIFWFYAMGWYRQAPGKERELVAAINWSGSYTYYADSVKARFTISRDNAKNTVYLQMNSLKPEDTAVYYCNALFSYGYWRVRYNYWGQGTQVTVSS | high polyreactivity
34 | QVQLQESGGSLVQAGGSLRLSCAASGNILVLPHGLVSPGAERELVATITGGSITYYADSVKGRFTISRDNAKNTVYLQMNSLKPGDTAVYYCAVINIYHRPHPYWGQGTLVTVSS | high polyreactivity
35 | QVQLVESGGGLVQAGGSLRLSCAASGSIFQPYAMGWYRQAPGKEREFVAAISRSGGITYYADSVKGRFTISRDNAKNTVYLQMNSLKPEDTAVYYCATGRQVVRSYSEGDYWGQGTQVTVSS | low polyreactivity
36 | QVQLVESGGGLVQAGGSLRLSCAASGSIFAYNAMGWYRQAPGKDREFVAAISQSGGRTYYAHSVKGRFTISRDNAKNTVYLQMNILKPEDTAVYYCATDGIRLTRHRDYDYWGQGTQVTVSS | low polyreactivity
37 | QVQLVESGGGLVQAGGSLRLSCAASGSTFTYNAMGWYRQAPGKERELVAAISSDGRTYYADSVKGRFTISRDNAKNTVYLQMNSLKPEDTAVYYCAAYFSGLTYGYYVAGYDYWGQGTQVTVSS | low polyreactivity
38 | QVQLVESGGGLVQAGGSLRLSCAAAGNIFSPYAMGWYIQAPGKERELVAAISYSGGSTYYADSVKGRFTISRDIAKNTFYLQMNSLKPEDTAVYYCAVVYSYYLAVLGYWDYDYWGQGTQVTVSS | low polyreactivity
39 | QVHLVESGGGLVQAGGSLRLSCAASGFILPYYAMGWYRQAPGKERELVAAISRSGGGTYYADSVKGRFTISRDNAKNTVYLQMNSLKPEDTAVYYCAADYSAYEYEYWGQGTQVTVSS | high polyreactivity
40 | QVQLVESGGGLVQAGGSLRLSCAASGFTFQYYAMGWYRQAPGKERELVAAISRGGSTNYADSVKGRFTISRDNAKNTVYLQMNSLKPEDTAVYYCARLGWTYLWGYDSWGQGTQVTVSS | high polyreactivity
41 | QVHLVESGGGLVQAGGSLRLSCAASGRIFAGYARGWYRQAPGKERELVAAISDGGTTNYADSVKGRFTISRDNAKNTVYLQMNSLKPEDTAVYYGAKDAAESYRYGYWGQGTQVSVSS | low polyreactivity
42 | QVQLVEAGGGLVQAGGSLRLSCAASGSIFVGYAMGWYRPAPGKEREFVAAINYRGGATYYADSVKGRFTISRDNAKNTDYLQMNSLQPEDTAVYYCAVGGWVIYPASLDYWGQGTQVTVSS | low polyreactivity
43 | QVQLVESGGGLVQAGGSLRLSCAASGITFFLYAMGWYRQAPGKERELVAVISASGGSTYYADSVKGRFTISRDNAKNTVYLQMNSLKPEDTAVYYCAAGYRFYGFYAHDYWGQGTQVTVSS | high polyreactivity

Source: the nanobody polyreactivity screen of Harvey et al. (2022)
